The results in this text go back to US20230203146A1.

Where a chain is given by its changes, count along the chain named.

The target in assay [1] is FLAG-tagged human Ang2 (human) (UniProt O15123). Put plainly: competition ELISA: FLAG-hAng2 binding to coated hTie2-Fc. A general note: ELISA stands for enzyme-linked immunosorbent assay.
Assay [2] concerns the target FLAG tagged human Ang2 (Alexis Biochemicals) (human) (UniProt O15123). Kind of assay: competition ELISA, periplasmic extract, FLAG-hAng2 on hTie2/Fc.
The target is the same in assay [3]. Kind of assay: AlphaScreen competition, periplasmic extract, FLAG-hAng2 / biotin-hTie2/Fc.
Assay [4] shares this target. Put plainly: competition ELISA, FLAG-hAng2 (0.02 nM) on coated hTie2/Fc.

Sequence of FLAG tagged human Ang2 (Alexis Biochemicals) (human) (O15123 19-496): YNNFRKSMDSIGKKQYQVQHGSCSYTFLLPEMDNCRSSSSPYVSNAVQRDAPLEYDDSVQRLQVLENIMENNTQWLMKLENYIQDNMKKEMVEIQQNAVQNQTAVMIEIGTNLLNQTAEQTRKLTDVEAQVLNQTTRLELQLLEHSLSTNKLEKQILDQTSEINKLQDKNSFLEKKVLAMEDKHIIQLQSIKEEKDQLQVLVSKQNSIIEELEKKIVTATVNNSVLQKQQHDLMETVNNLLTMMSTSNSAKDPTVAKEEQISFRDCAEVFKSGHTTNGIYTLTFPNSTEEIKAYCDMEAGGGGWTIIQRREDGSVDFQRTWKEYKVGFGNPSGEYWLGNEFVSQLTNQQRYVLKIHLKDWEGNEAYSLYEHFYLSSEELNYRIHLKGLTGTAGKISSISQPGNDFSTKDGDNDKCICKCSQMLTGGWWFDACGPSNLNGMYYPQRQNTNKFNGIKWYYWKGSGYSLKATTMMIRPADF
Sequence of FLAG-tagged human Ang2 (human) (O15123 19-496): as above

B1: VHH 00903 (VHH, not shown: small tags and cut ends)
VHH: EVQLVESGGGLVQPGGSLRLSCAASGFTLDDYAIGWFRQAPGKEREGVSSIRDNGGSTYYADSVKGRFTISSDNSKNTVYLQMNSLRPEDTAVYYCAAVPAGRLRFGEQWYPIYEYDAWGQGTLVTVSS
Molecule B1 had an IC50 in assay [1] of 89 pM.

B2: VHH 00900 (VHH, not shown: small tags and cut ends)
VHH: B1 VHH with P14A, A24V, G55D, S75D, R87K, I113L
In assay [1], B2 showed a half-inhibitory concentration (IC50) of 200 pM.

B3: VHH 00898 (VHH, not shown: small tags and cut ends)
VHH: B1 VHH with P14A, S50A, G55D, S75D, R87K, I113L
Take B3: the half-maximal inhibitory concentration (IC50) in assay [1] was found to be 1200 pM.

B4: VHH 00906 (VHH, not shown: small tags and cut ends)
VHH: B1 VHH with L29I, F106Y
Regarding B4, the IC50 in assay [1] was determined as 45 pM.

B5: VHH 00902 (VHH, not shown: small tags and cut ends)
VHH: B1 VHH with P14A, S50A, N54S, S75D, R87K, I113L
B5 came in with an IC50 in assay [1] of 1300 pM.

B6: VHH 00914 (VHH, not shown: small tags and cut ends)
VHH: B1 VHH with F27L, L29I, F106Y
In turn, B6 registered an IC50 in assay [1] of 37 pM.

B7: VHH 00907 (VHH, not shown: small tags and cut ends)
VHH: B1 VHH with F27I
Take B7: the IC50 in assay [1] stood at 62 pM.

B8: VHH 00909 (VHH, not shown: small tags and cut ends)
VHH: B1 VHH with F27I, L29I
For B8, the concentration for half-maximal inhibition (IC50) in assay [1] is 53 pM.

B9: VHH 00913 (VHH, not shown: small tags and cut ends)
VHH: B1 VHH with F27L, L29I
Consider B9, for which, in assay [1], the IC50 came out at 42 pM.

B10: VHH 00904 (VHH, not shown: small tags and cut ends)
VHH: B1 VHH with F106Y
In assay [1], B10 showed an IC50 of 62 pM.

B11: VHH 00899 (VHH, not shown: small tags and cut ends)
VHH: B1 VHH with P14A, N54I, G55D, S75D, R87K, I113L
As to B11, the IC50 in assay [1] worked out at 900 pM.

B12: VHH 00910 (VHH, not shown: small tags and cut ends)
VHH: B1 VHH with F27I, L29I, F106Y
In assay [1], B12 showed an IC50 of 42 pM.

B13: VHH 00912 (VHH, not shown: small tags and cut ends)
VHH: B1 VHH with F27L, F106Y
On to B13, for which, in assay [1], the IC50 was 62 pM.

B14: VHH 00923 (VHH, not shown: small tags and cut ends)
VHH: B1 VHH with E1D, S50A, I113L
Regarding B14, the 50% inhibitory concentration (IC50) in assay [1] came out at 700 pM.

B15: VHH 00911 (VHH, not shown: small tags and cut ends)
VHH: B1 VHH with F27L
In assay [1], B15 returned an IC50 of 59 pM.

B16: VHH 00905 (VHH, not shown: small tags and cut ends)
VHH: B1 VHH with L29I
With B16, the IC50 in assay [1] was determined as 79 pM.

B17: VHH 19A03 (VHH, not shown: small tags and cut ends)
VHH: EVQLVESGGGLVQAGGSLRLSCAASGFTFDDYAIAWFRQAPGKEREGISCITPSDDRTYYADSVKGRFIISSDNAKNTVYLQMNSLKPEDTADYYCAAVPRLRGLGYWPYPEYEYDYWGQGTQVTVSS
Consider B17, for which the % inh in assay [2] and in assay [3] was 74% each time.

B18: VHH 23C10 (VHH, not shown: small tags and cut ends)
VHH: EVQLVESGGGLVQPGGSLRLSCAASGFALDYYAIGWFRQAPGKEREGVSCISSSDGSTYYADSVKGRFTISRDNAKNTVYLQMNSLKPEDTAVYYCATDSLGYGSSCRMAPYEYDYWGQGTQVTVSS
Take B18: the % inh was determined as 37% in assay [2] and 57% in assay [3].

B19: VHH 2F04 (VHH, not shown: small tags and cut ends)
VHH: EVQLVESGGGLVQAGGSLRLSCAASGFAFDDHLIGWFRQAPGKEREAVSCISRSAGSTYYADSVKGRFTISSDNAKNTVYLQMNSLKADDTAVYYCAAGPAWGRPASPLPYEYDYWGQGTQVTVSS
In the case of B19, the IC50 in assay [4] is 2800 pM.

B20: VHH 00039 (VHH, not shown: small tags and cut ends)
VHH: EVQLVESGGGLVQPGGSLRLSCAASGFTFDDYALGWFRQAAGKEREGVSCIRCSDGSTYYADSVKGRFTISRDNSKNTVYLQMNSLRPEDTAVYYCAASIVPRSKLEPYEYDAWGQGTLVTVSS
The molecule B20 yielded an IC50 in assay [1] of 11900 pM.

B21: VHH 00049 (VHH, not shown: small tags and cut ends)
VHH: B20 VHH with R72S
Turning to B21, the half-inhibitory concentration (IC50) in assay [1] is 6900 pM.

B22: VHH 00040 (VHH, not shown: small tags and cut ends)
VHH: B20 VHH with A41P
Turning to B22, the 50% inhibitory concentration (IC50) in assay [1] came to 6400 pM.

B23: VHH 00051 (VHH, not shown: small tags and cut ends)
VHH: B20 VHH with D55G, R72S
In turn, B23 had an IC50 in assay [1] of 16100 pM.

B24: VHH 00050 (VHH, not shown: small tags and cut ends)
VHH: B20 VHH with A41P, R72S
As for B24, the half-inhibitory concentration (IC50) in assay [1] came out at 6000 pM.

B25: VHH 00925 (VHH, not shown: small tags and cut ends)
VHH: B20 VHH with E1D, A41P, D55G, R72S
On to B25, for which the IC50 in assay [1] was 22100 pM.

B26: VHH 00921 (VHH, not shown: small tags and cut ends)
VHH: B20 VHH with A41P, D55G, R72S
For B26, the IC50 in assay [1] is 30400 pM.

B27: VHH 10A03 (VHH, not shown: small tags and cut ends)
VHH: EVQLVESGGGSVQAGGSLRLSCAASERTFSPYAMGWFRQAPGKEREFVAHITWSAGSTYYADSVKGRFTISRDNAKNTVYLQMNSLKPEDTAVYYCAAKRRYGIVDRDYNDWGQGTQVTVSS
For the molecule B27, the figures for the % inh in assay [2] and in assay [3] were 0% and 67%, respectively.

B28: VHH 2G01 (VHH, not shown: small tags and cut ends)
VHH: EVQLVESGGGLVQAGGSLRLSCAASGRTISSYAMAWFRQAPGKEREFVAAISLSGDSTYYADSVKGRFTISRDNAKNTVYLQMNSLKPEDTAEYYCAATDWDFEDIPEYYCSGYGCDESLFDSWGQGTQVTVSS
Regarding B28, the % inh in assay [2] amounted to 39%; in assay [3], 55%.

B29: VHH 3A07 (VHH, not shown: small tags and cut ends)
VHH: EVQLVESGGGLVQPGGSLRLSCAASGFTLDYDAIGWFRQAPGKEREGVSCITSSDGITYYADSVKGRFTISRDNAKNTVYLQMNSLKPEDTAVYYCATGNRRIYYSDYALACFPYEYDYWGQGTQVTVSS
Consider B29, for which, in assay [4], the IC50 was 21000 pM.

B30: VHH 25B01 (VHH, not shown: small tags and cut ends)
VHH: EVQLVESGGGLVQAGGSLRLSCAASGFTFDDYAIGWFRQAPGKEREGVSCISSSDGSTYYADSVKGRFTISSDNAKNTVYLQMNSLKPEDTAVYYCAAAWGASRLPIGTMPPYEYDYWGQGTQVTVSS
Regarding B30, the % inh is 5% in assay [2] and 61% in assay [3].

B31: VHH 15A06 (VHH, not shown: small tags and cut ends)
VHH: EVQLVESGGGLVQAGGSLRLSCAASGRTFSSYAMGWFRQAPGKEREFVARISWNGGSTYHADSVKGRFTISRDNPKNTVYLQMDSLKPEDAAIYYCAASIALVGGVTPHSYDYWGQGTQVTVSS
Turning to B31, the % inh in assay [2] was found to be 0%; in assay [3] it was 72%.

B32: VHH 00044 (VHH, not shown: small tags and cut ends)
VHH: EVQLVESGGGLVQPGGSLRLSCAASGFALDYYAIGWFRQAPGKEREGVSCISSSDGITYYVDSVKGRFTISRDNSKNTVYLQMNSLRPEDTAVYYCATDSGGYIDYDCMGLGYDYWGQGTLVTVSS
In assay [1], B32 showed an IC50 of 69 pM.

B33: VHH 00931 (VHH, not shown: small tags and cut ends)
VHH: B32 VHH with D55G, V61A, D99E, M109S
B33: the IC50 in assay [1] was 170 pM.

B34: VHH 00930 (VHH, not shown: small tags and cut ends)
VHH: B32 VHH with D55G, V61A, D99E, M109R
The molecule B34 came in with a half-maximal inhibitory concentration (IC50) in assay [1] of 190 pM.

B35: VHH 00920 (VHH, not shown: small tags and cut ends)
VHH: B32 VHH with D55G, V61A
Turning to B35, the half-maximal inhibitory concentration (IC50) in assay [1] is 130 pM.

B36: VHH 00046 (VHH, not shown: small tags and cut ends)
VHH: B32 VHH with D55G
Turning to B36, the IC50 in assay [1] stood at 95 pM.

B37: VHH 00929 (VHH, not shown: small tags and cut ends)
VHH: B32 VHH with D55G, V61A, D99E, M109Q
The molecule B37 registered an IC50 in assay [1] of 150 pM.

B38: VHH 00045 (VHH, not shown: small tags and cut ends)
VHH: B32 VHH with V61A
In the case of B38, the IC50 in assay [1] came to 120 pM.

B39: VHH 00927 (VHH, not shown: small tags and cut ends)
VHH: B32 VHH with D55G, V61A, M109R
Consider B39, for which the IC50 in assay [1] came out at 220 pM.

B40: VHH 00924 (VHH, not shown: small tags and cut ends)
VHH: B32 VHH with E1D, D55G, V61A
Take B40: the half-inhibitory concentration (IC50) in assay [1] turned out to be 110 pM.

B41: VHH 00928 (VHH, not shown: small tags and cut ends)
VHH: B32 VHH with D55G, V61A, M109S
Turning to B41, the half-inhibitory concentration (IC50) in assay [1] came to 220 pM.

B42: VHH 00926 (VHH, not shown: small tags and cut ends)
VHH: B32 VHH with D55G, V61A, M109Q
For the molecule B42, the half-maximal inhibitory concentration (IC50) in assay [1] stood at 250 pM.

B43: VHH 22G11 (VHH, not shown: small tags and cut ends)
VHH: EVQLVESGGGLVQAGGSLRLSCAVSGFTFDDYAIGWFRQAPGKEREGVSCISRSDGSPYYADSVKGRFTISSDNAKGTVYLQMSSLKPEDTAVYYCAASWSGAYYSGTYYCDRLYEYDAWGQGTQVTVSS
Take B43: the % inh in assay [2] worked out at 100%; in assay [3], 96%.

In general, IC50 refers to the point on the concentration scale where inhibition reaches its midpoint. Read a high IC50 as lower potency.
